Data as given in paper PMC5686127, “Accessibility of the histone H3 tail in the nucleosome for binding of paired readers” (Nature Communications, 2017).

Assays:
CHD4 PHD1 (aa 362–417) = biological target: T1, CHD4 PHD1 (aa 362–417) (human, UniProt Q14839 362-417); assay: other fluorescence titration; intrinsic tryptophan fluorescence; H3 (1-12) peptide added to 0.5-1 uM CHD4 PHD construct; 25 °C, pH 7.5, 75 mM NaCl, 3 mM DTT; apparent; settings: both partners purified
T1 construct: CHD4, human, first PHD finger, aa 362-417; Cloned into pGex6p1; also called first PHD finger of CHD4; source: E. coli BL21 DE3 pLysS, purified (glutathione Sepharose 4B, GST cleaved with Prescission protease)
T1 sequence (Q14839 362-417): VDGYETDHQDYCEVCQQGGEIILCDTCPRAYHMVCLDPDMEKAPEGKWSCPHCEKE

CHD4 PHD2 (443–498) = biological target: T2, CHD4 PHD2 (443–498) (human, UniProt Q14839 443-498); assay: as above; settings: both partners purified
T2 construct: CHD4, human, second PHD finger, aa 443-498; Cloned into pGex6p1; also called second PHD finger of CHD4; source: E. coli BL21 DE3 pLysS, purified (glutathione Sepharose 4B, GST cleaved with Prescission protease)
T2 sequence (Q14839 443-498): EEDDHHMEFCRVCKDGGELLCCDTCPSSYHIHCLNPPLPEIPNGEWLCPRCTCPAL

B1: histone H3 peptide (aa 1–12) (peptide, UniProt P68431 2-13, looked up)
peptide: ARTKQTARKSTG
notes: histone H3, aa 1-12, unmodified; also called H3 (1–12) peptide; histone peptide; source: synthetic peptide (University of Colorado Denver Peptide Core Facility)
CHD4 PHD1 (aa 362–417)
  Kd: 4 µM
CHD4 PHD2 (443–498)
  Kd: 0.43 µM
